Measured values: US20080311122A1, “Antagonists of Hmgb1 and/or Rage and Methods of Use Thereof” (Medimmune, LLC, priority 2005, published 2008)

Key:
[1] = tested on: native activated HMG1 stimulated IL-6 release from human PBMCs; experiment: Inhibition of cytokine release from PBMCs, native activated HMG1; assay type: cell-based
Procedure: Inhibition of Cytokine Release: Human peripheral blood mononuclear cells (PBMCs) were isolated from the peripheral blood of healthy volunteers by a density gradient centrifugation. Freshly drawn heparinized whole blood was mixed with two volume of PBS. The diluted blood was gently layered on the surface of Histopaque-1077 (Sigma-Aldrich) and centrifuged at 400×g, at RT for 30 minute. PBMCs were collected from the interface between the plasma and the density gradient solution. After washing in PBS 3×, the purified PBMCs were resuspended in RPMI-1640 medium (GIBCO BRL) containing 100 U/ml penicillin, 100 μg/ml streptomycin and […] β-mercaptoethanol. 1×10^5 of cells was added in each well of 96-well cell culture plates.
The PBMCs were incubated for two hours at 37° C. with 5% CO2. recombinant HMG1, at 4 μg/ml, or native activated HMG1 from 2.4×10^5 LPS stimulated THP-1 cells, and different concentrations of human anti-HMGB-1 monoclonal antibodies, a RAGE-FC fusion protein or an HMG1 A-box-Fc fusion protein were added into each well. The culture media was supplemented with 8 U/ml (1 μg/ml) Polymyxin B sulphate (Sigma-Aldrich) to inhibit potential endotoxin. PBMCs from the same donor without stimulation with HMG1 were used as controls. The cell-free culture media were harvested after 14 hours and stored at −20° C.
The culture media were analyzed for inflammatory cytokines using Beadlyte human multi-cytokine flex kit from Upstate by Luminex 100 (Luminex Corp.). Proinflammatory cytokines TNF-α, IL-6, IL-1β and IL-12 (p40) were measured for cells stimulated with recombinant HMG1. In addition, TNF-α, IL-6, IL-1β and IL-8 were measured for cells stimulated with native activated HMG1.
Cytokine release data is presented as mean of triplicates±standard deviations. IC50 for anti-HMGB1 monoclonal antibody is defined as the concentration of antibody required yielding one-half maximal inhibition of the cytokine release from PBMCs stimulated by HMGB1. It was calculated by PRISM program.

[2] = Differential scanning calorimetry; assay type: physicochemical; design: unit: °C; conditions: in °C (unit assumed)
Procedure: Differential Scanning Calorimetry: Thermal melting temperatures (Tm) were measured with a VP-DSC (MicroCal, LLC) using a scan rate of 1.0° C./min and a temperature range of 25-120° C. A filter period of 8 seconds was used along with a 5 minute pre-scan thermostating. Samples were prepared by dialysis into 25 mM Histidine-HCl, pH 6 using Pierce dialysis cups (3.5 kD). Average Mab concentrations were 50 μg/mL as determined by A280. Melting temperatures were determined following manufacturer procedures using Origin software supplied with the system. Briefly, multiple baselines were run with buffer in both the sample and reference cell to establish thermal equilibrium. After the baseline was subtracted from the sample thermogram, the data were concentration normalized and fitted using the deconvolution function.

[3] = target: T1, recombinant HMG1 (Homo sapiens, UniProt P09429); experiment: HMG1 binding affinity via BIAcore analysis
T1 construct: made in house; host or cells: E. coli
T1 sequence (P09429 1-215): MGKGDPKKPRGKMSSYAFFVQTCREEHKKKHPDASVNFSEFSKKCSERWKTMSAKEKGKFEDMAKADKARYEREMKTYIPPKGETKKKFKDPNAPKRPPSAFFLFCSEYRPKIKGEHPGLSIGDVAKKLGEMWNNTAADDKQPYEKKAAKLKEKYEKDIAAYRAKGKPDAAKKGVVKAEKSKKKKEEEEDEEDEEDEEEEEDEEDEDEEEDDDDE
Procedure: HMG1 Binding Affinity via BIAcore Analysis: All experiments were performed on a BIAcore 3000 instrument (BIAcore, Inc., Piscataway, N.J.). Briefly, each mAb was immobilized to a CM5 sensor chip using a standard amino coupling chemistry. Separately a reference (control) flow cell was also prepared. Two-fold, serial dilutions of HMG1 in instrument buffer were sequentially injected at a slow flow rate over the individual mAb and reference flow-cell surfaces. Following the binding and dissociation of HMG1, the mAbs surfaces were regenerated with a brief pulse of 1M NaCl-50 mM NaOH. At the end of each experiment, the binding curves were evaluated using a steady-state model available through the BIA evaluation software supplied by BIAcore, Inc. (Piscataway, N.J.).

[4] = tested on: mouse CLP model of sepsis; experiment: Cecal ligation and puncture (CLP) model of sepsis; assay type: in vivo; conditions: percent protection, isotype control subtracted
Procedure: Anti-HMGB1 in Sepsis: To establish live intra-abdominal infection and sepsis, Balb/C mice (9-11 per group) were subjected to the CLP procedure as described previously (Fink and Heard, 1990, J Surg Res 49:186-196; Wichmann et al., 1996, J Surg Res 65, 109-114). After anesthesia with an intramuscular injection of ketamine (75 mg/kg, Fort Dodge Laboratories, Fort Dodge, Iowa) and xylazine (20 mg/kg, Bochringer Ingelheim), a 15-mm midline incision was made to expose the cecum. After ligation 5.0 mm from the tip, the cecal stump was punctured once with a 22-gauge needle, and small amount of stool (1-mm length) was extruded. The cecum was placed back into its normal intra-abdominal position, and the wound was closed with two layers of running suture. All animals received saline-solution (0.9% s.c., 20 ml/kg of body weight) resuscitation, and a single dose of antibiotic (0.5 mg of imipenem per mouse in 200 μl of sterile saline injected s.c.) (Primaxin, Merck) 30 min after surgery.
Anti-HMG1 antibodies or isotype control antibodies (50 μg/mouse in a 200 μl volume), were administered intraperitoneally at 24 and 48 hours, post surgery. In certain follow up experiments anti-HMG1 antibodies or isotype control antibodies (8 mg/kg) were administered intraperitoneally at 24 hours, post surgery (FIG. 11C-D). These experiments were blinded—the surgeons randomized the cages, and the encoded antibodies were dosed by another investigator. The survival of the mice was monitored twice daily for a total of 14 days. The survival curves for several representative experiments where the antibodies were delivered at 50 μg/mouse at times 24 and 48 are shown in FIGS. 11A and 11B. The survival curve generated by combining several representative experiments where the antibodies were delivered at 8 mg/kg 24 hours post surgery is shown in FIG. 11C. Several additional antibodies and the oligoclonal antibody pool were tested at 8 mg/kg administered 24 hours post surgery (FIG. 11D).

B1: G9: human anti-HMG1 antibody; VL/VH aa SEQ ID NO: 34/36 (antibody, listed as Homo sapiens, V domains shown)
VH: EVQLLESGGGLVQPGGSLRLSCAASGFTFSSYDMFWVRQAPGKGLEWVSRISPSGGYTYYADSVKGRFTISRDNSKNTLYLQMNSLRAEDTAVYYCARLRYFDSRGYAFDIWGQGTMVTVSS
VL: AQDIQMTQSPGTLSLSPGERATLSCRASQSVRSSYLAWYQQKPGQAPRLLIYGASTRATGIPDRFSGSGSGTDFTLTISRLEPEDFAVYYCQQYGTSRWTFGQGTKVEIK
[1]
  block of IL-6 release induced by native activated HMG1: less effective
[2]
  Tm: 77.9

B2: S12: human anti-HMG1 antibody; VL/VH aa SEQ ID NO: 62/64 (antibody, listed as Homo sapiens, V domains shown)
VH: EVQLLESGGGLVQPGGSLRLSCAASGFTFSKYIMHWVRQAPGKGLEWVSGIVPSGGLTEYADSVKGRFTISRDNSKNTLYLQMNSLRAEDTATYYCAKEIFGQFDYWGQGTLVTVSS
VL: AQSALTQPPSVSAAPRQRVTISCSGSTSNIGNNAVTWYQYFPGKAPKLLIYSDNQRPSGVPDRFSGSKSGTSASLAITGLQAEDEADYYCQSYDRGLSVVFGGGTKLTVL
[2]
  Tm: 66.9

B3: S17: human anti-HMG1 antibody; VL/VH aa SEQ ID NO: 70/72 (antibody, listed as Homo sapiens, V domains shown)
VH: EVQLLESGGGLVQPGGSLRLSCAASGFTFSYYDMHWVRQAPGKGLEWVSRISPSGGYTWYADSVKGRFTISRDNSKNTLYLQMNSLRAEDTAVYYCTRGRYTSGWHEYFDPWGQGTLVTVSS
VL: AQDIQMTQSPSSLSASVGDRVTITCRASQSIGTYLNWYQQKPGTAPKVLIYAASSLQSGVPSRFSGSGSGTDFTLTISSLQPEDFSTYYCQQSYNTPRTFGQGTKLEIK
[3]
  Kd: 331 nM
[1]
  block of IL-6 release induced by native activated HMG1: able to block IL-6 released induced by native activated HMG1
[2]
  Tm: 90.0

B4: G2: human anti-HMG1 IgG1 from Fab phage display library; VL/VH aa SEQ ID NO: 30/32 (antibody, listed as Homo sapiens, V domains shown)
VH: EVQLLESGGGLVQPGGSLRLSCAASGFTFSWYKMQWVRQAPGKGLEWVSGISPSGGSTAYADSVKGRFTISRDNSKNTLYLQMNSLRAEDTAVYYCAKMGLFNTGNSYVDYWGQGTLVTVSS
VL: AQSELTQPPSVSEAPGQRVTISCSGSTSNIGNNAVIWYQQLPGKAPKLLIYYDDLLPSGVSDRFSGSKSGTSGSLAISGLQSEDEADYYCASWDDNLNGPLFGGGTKLTVL
[4]
  in vivo CLP: 60%
[3]
  Kd: 101 nM
[2]
  Tm: 67.1

B5: S16: human anti-HMG1 antibody, ATCC PTA-6259; VL/VH aa SEQ ID NO: 13/15 (antibody, listed as Homo sapiens, V domains shown)
VH: EVQLLESGGGLVQPGGSLRLSCAASGFTFSWYSMLWVRQAPGKGLEWVSYISPSGGFTNYADSVKGRFTISRDNSKNTLYLQMNSLRAEDTAVYYCARWDYNSGWYYDHWGQGTLVTVSS
VL: AQDIQMTQSPDTLSLSPGERATLSCRASQSVNSRNLAWYQQKPGQAPRLLIYGASTRATGIPDRFSGSVSGTEFTLTISSLQPDDFATYYCQQYNSYFTFGQGTKLEIK
[4]
  in vivo CLP: 60-75%
[1]
  block of IL-6 release induced by native activated HMG1: able to block IL-6 released induced by native activated HMG1
[2]
  Tm: 71.4

B6: S10: human anti-HMG1 antibody; VL/VH aa SEQ ID NO: 58/60 (antibody, listed as Homo sapiens, V domains shown)
VH: EVQLLESGGGLVQPGGSLRLSCAASGFTFSWYDMWWVRQAPGKGLEWVSWIVPSGGITAYADSVKGRFTISRDNSKNTLYLQMNSLRAEDTATYYCARGNYGPSPFDYWGQGTLVTVSS
VL: AQDIQMTQSPGTLSLSPGERATLSCRATQSVRKNFLAWYQQKPGQAPRLLIYDASSRATGIPDRFSGSGSGTDFTLTISRLEPEDFAVYYCQQYGNSPIIFGQGTRLEIK
[2]
  Tm: 75.3

B7: G20: human anti-HMG1 antibody; VL/VH aa SEQ ID NO: 46/48 (antibody, listed as Homo sapiens, V domains shown)
VH: EVQLLESGGGLVQPGGSLRLSCAASGFTFSWYDMFWVRQAPGKGLEWVSWISPSGGYTKYADSVKGRFTISRDNSKNTLYLQMNSLRAEDTAMYYCARSGLDYYDSSGYLDAFDIWGQGTMVTVSS
VL: AQDIQMTQSPSSVSASVGDRVTITCRASQDVSIWLAWYQQKPGKAPKLLIFGASRLQSGVPSRFSGSRSGADFTLTIDSVQPEDFASYYCQQADSFPLTFGGGTKVEIK
[3]
  Kd: 114 nM
[2]
  Tm: 71.2

B8: E11: human anti-HMG1 antibody, recognizes HMG1 A-Box; VL/VH aa SEQ ID NO: 24/26 (antibody, listed as Homo sapiens, V domains shown)
VH: EVQLLESGGGLVQPGGSLRLSCAASGFTFSRYQMNWVRQAPGKGLEWVSSISPSGGHTHYADSVKGRFTISRDNSKNTLYLQMNSLRAEDTAVYYCAKDGRQGKISTVDHWGQGTLVTVSS
VL: AQDIQMTQSPGTLSLSPGERATLSCRASQSVRSNFLAWYQQKPGQAPRLLIYGASRRASGIPDRFSGSGFGADFTLSISRLEPEDFAVYYCQQYGSSPNTFGQGSRVEIK
[4]
  in vivo CLP: 35%
[1]
  block of IL-6 release induced by native activated HMG1: able to block IL-6 released induced by native activated HMG1
[2]
  Tm: 66.3
